Literature values in article PMC3423493.

Experiments:
[1] = target: Sclerostin (Homo sapiens) (UniProt Q9BQB4)
BMP2 (Homo sapiens) = BMP2 (Homo sapiens) (UniProt P12643)
Sequence of UniProt P12643 (P12643 283-396): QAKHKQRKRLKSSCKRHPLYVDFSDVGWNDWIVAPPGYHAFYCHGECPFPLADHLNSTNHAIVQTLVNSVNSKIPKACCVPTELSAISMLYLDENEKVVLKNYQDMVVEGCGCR

Sequence of UniProt Q9BQB4 (Q9BQB4 24-213): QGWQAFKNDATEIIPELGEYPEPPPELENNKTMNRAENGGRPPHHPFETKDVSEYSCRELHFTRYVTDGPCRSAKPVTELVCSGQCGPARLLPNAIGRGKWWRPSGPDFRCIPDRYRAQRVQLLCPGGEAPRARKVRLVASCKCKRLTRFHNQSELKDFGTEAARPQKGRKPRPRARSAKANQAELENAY

Kd [1]: 2.92 nM
Kd (BMP2 (Homo sapiens)): 0.02 nM
Substance: Noggin (from UniProt Q13253)
